Values belong to the binder of their own block, whether it stands above or below them.
Assays:
[1] = target: T1, Cμ2 (μ2 residues 160 to 435) (UniProt P84092 160-435); test: ITC; Cμ2 with FCHO2 constructs or peptides; 100 mM tris pH 7.4, 150 mM NaCl, 0.25 mM TCEP; 12°C; Nano ITC; conditions: both partners purified
T1 construct: AP2 μ2 subunit, C-terminal subdomain, residues 160 to 435; in the chimera crystals Cμ2 carries an N-terminal His6 tag or a thrombin-cleaved GST tag; also called His6μ2 (residues 160 to 435) wt; isolated Cμ2; source: E. coli BL21 plyS, purified (Ni-NTA, Superdex 200)
T1 sequence (looked up): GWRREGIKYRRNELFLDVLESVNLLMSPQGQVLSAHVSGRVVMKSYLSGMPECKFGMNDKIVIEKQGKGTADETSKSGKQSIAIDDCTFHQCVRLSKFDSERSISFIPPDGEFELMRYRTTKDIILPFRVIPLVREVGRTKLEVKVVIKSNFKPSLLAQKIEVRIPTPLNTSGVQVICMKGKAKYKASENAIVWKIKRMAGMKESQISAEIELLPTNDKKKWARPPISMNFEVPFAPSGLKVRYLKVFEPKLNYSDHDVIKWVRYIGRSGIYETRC

[2] = target: T2, AP2 α-appendage (residues 695 to 938) (UniProt P17427 695-938); test: ITC; α-appendage or β2-appendage with C block peptides; 100 mM tris pH 7.4, 150 mM NaCl, 0.25 mM TCEP; 12°C; peptides 1 to 5 mM titrated; conditions: both partners purified
T2 construct: AP2 α subunit (α2), appendage, residues 695 to 938; also called α2 ear; pGEX4T2α-appendage; source: E. coli BL21 plyS, purified (GST beads, thrombin, Superdex 200)
T2 sequence (P17427 695-938): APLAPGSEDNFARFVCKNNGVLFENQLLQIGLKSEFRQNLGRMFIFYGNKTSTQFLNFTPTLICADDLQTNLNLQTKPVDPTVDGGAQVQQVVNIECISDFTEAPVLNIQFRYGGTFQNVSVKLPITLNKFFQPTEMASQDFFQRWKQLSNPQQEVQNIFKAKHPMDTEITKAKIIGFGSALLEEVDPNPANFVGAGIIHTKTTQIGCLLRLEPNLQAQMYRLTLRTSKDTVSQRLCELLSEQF

- fold reduction of binding against FCHO2-N1+N2 wild type [1]: 5 fold
B1: FCHO2-N1+N2 EEK mutant (domain or fragment)
chain: NIPDVDAAGYSIAPETNQNDTKENHFYSSSDSDSEDEEPKKYRIEIKPMHPNNSHHTMASLDELKVSIGNITLSPAISRHS

- Kd [2]: > 500 µM
B2: FCHO1 C peptide, LES to AAA (peptide, UniProt O14526 426-448, looked up)
peptide: QSEEQVSKNLFGPPAAAAFDHED

From article PMC9054013, “FCHO controls AP2’s initiating role in endocytosis through a PtdIns(4,5)P2-dependent switch” (Science Advances, 2022)
